# Data: patent US20080279838, “Reconstructed Human Mariner Transposon Capable of Stable Gene Transfer Into Chromosomes in Vertebrates” (published 2008)
# B1: Hsmar1 transposon inverted repeats (left IR / right IR, flanking SV40-neo in pHsmar1/neo) (dsDNA)
# DNA 1: TTAGGTTGGTGCAAAAGTAATTGCGGTTTT
# DNA 2: AAAACCGCAATTACTTTTGCACCAACCTAA
# Target: T1, Hsmar1-Prime transposase (Hsmar1-P) (Homo sapiens, UniProt Q53H47 SEQ:1-343)
# T1 chain: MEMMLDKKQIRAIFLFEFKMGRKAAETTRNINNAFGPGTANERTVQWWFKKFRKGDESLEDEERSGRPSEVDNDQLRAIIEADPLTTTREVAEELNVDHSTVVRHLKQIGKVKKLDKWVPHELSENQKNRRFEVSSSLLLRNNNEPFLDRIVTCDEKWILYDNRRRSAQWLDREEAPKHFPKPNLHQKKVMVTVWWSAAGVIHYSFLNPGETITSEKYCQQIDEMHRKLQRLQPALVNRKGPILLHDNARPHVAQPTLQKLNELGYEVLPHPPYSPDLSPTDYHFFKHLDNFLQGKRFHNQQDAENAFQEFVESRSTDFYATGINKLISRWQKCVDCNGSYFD
# Assay: cell_activity; HeLa cells, donor pHsmar1/neo plus helper; excision with 3 bp footprint, integration at TA
# Conditions: tags: expressed from pFV-4a helper plasmid; chain copies: 2; 30 bp terminal inverted repeats in plasmid donor
binder,measurement,value
B1,activity,~20 fold increase in G418-resistant colonies
